{"source": "patent US11827701B2", "about": "“IL-6 binding molecules” (argenx BV, priority 2012, dated 2023)", "molecules": {"B1": {"name": "28C6: antagonistic IL-6-specific Fab clone from immunized llama (antibody, listed as Lama glama, V domains shown)", "VH": "QVQLVESGGGLVQPGGSLRLSCAASGFTFSNYYMTWVRQAPGKGLEWVSSIYSFSGDTAYADSVKGRFTISRDNAKNTLYLQMNKLKSEDTAVYYCTRDLGGVVVTANGYDYWGQGTQVTVSS", "VL": "DIVMTQTPSSLSASLGDRVTITCQASQSISTELSWYQQKPGQTPKLLIYGASRLQTGVPARFSGSGSGTSFTLTISGLEAEDLATYYCLQDYSWPYSFGSGTRL"}, "B2": {"name": "20A4: antagonistic IL-6-specific Fab clone, parental of 68F2 (antibody, listed as Lama glama, V domains shown)", "VH": "EVQLQESGPGLVKPSQTLSLTCTVSGGSITTRYYAWSWIRQPPGKGLEWMGVIDYDGDTYYSPSLKSRTSISWDTSKNQFSLQLSSVTPEDTAVYYCARDPDVVTGFHYDYWGQGTQVTVSS", "VL": "ALNFMLTQPPSVSGTLGKTVTISCAGTSSDIGGYNYVSWYQQLPGTAPKLLIHRVSTRASGIPDRFSGSKSGNTASLTISGLRSEDEANYYCASYRNFNNAVFGGGTQLTVLG"}, "B3": {"name": "24C9: antagonistic IL-6-specific Fab clone from immunized llama (antibody, listed as Lama glama, V domains shown)", "VH": "QVQLVESGGGLVQPGGSLRLSCAASGFTFSSYRMYWVRQPPGKGLEWVSAISAGGGSTYYGDSVKGRFTISRDNAKNTVYLQMNSLKPEDTALYYCKKSTWADGESDYWGQGTQVTVSS", "VL": "QTVVTQEPSLSVSPGGTVTLTCGLSSGSVTASNYPGWFQQTPGQAPRALIYSTNDRHSGVPSRFSGSISGNKAALTITGAQPEDEADYYCALDIGDITEFGGGTHLTVLG"}, "B4": {"name": "18C11: antagonistic IL-6-specific Fab clone from immunized llama (antibody, listed as Lama glama, V domains shown)", "VH": "EVQLVESGGGLVQPGGSLRLSCAASGFTFSSYAMSWVRQAPGKGLEWVSAINSGGGSTSYADSVKGRFTISRDNAKNTLYLQMNSLKPEDTAVYYCAKEGDTGWKDPMYDYWGQGTQVTVSS", "VL": "QSVVTQPSALSVTLGQTAKITCQGGGLRSSYAHWYQQKPGQAPVLVIYDDDSRPSGIPERFSGSSSGGRATLTISGAQAEDEGDYYCQSADSSGNAAVFGGGTHLTVLG"}, "B5": {"name": "CNTO 136 (antibody, chains of the INN, looked up, V domains shown)", "VH": "EVQLVESGGGLVQPGGSLRLSCAASGFTFSPFAMSWVRQAPGKGLEWVAKISPGGSWTYYSDTVTGRFTISRDNAKNSLYLQMNSLRAEDTAVYYCARQLWGYYALDIWGQGTTVTVSS", "VL": "EIVLTQSPATLSLSPGERATLSCSASISVSYMYWYQQKPGQAPRLLIYDMSNLASGIPARFSGSGSGTDFTLTISSLEPEDFAVYYCMQWSGYPYTFGGGTKVEIK"}}, "key": {"[1]": {"target": "biotinylated (prokaryotic) IL-6 (Homo sapiens, UniProt P05231)", "sequence (P05231 30-212)": "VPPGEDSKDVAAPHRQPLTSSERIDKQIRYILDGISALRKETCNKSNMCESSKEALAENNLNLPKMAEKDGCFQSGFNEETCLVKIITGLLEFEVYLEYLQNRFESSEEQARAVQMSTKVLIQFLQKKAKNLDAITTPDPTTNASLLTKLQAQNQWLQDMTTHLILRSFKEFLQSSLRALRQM", "assay": "Surface plasmon resonance (Biacore), biotinylated IL-6 captured on streptavidin sensor chip", "format": "binding", "details": "purified Fab", "procedure": "The binding kinetics of IL-6-specific Fabs that were able to cross-compete with the B-E8 antibody was assessed using surface plasmon resonance (Biacore). Specifically, biotinylated (prokaryotic) IL-6 was captured on a streptavidin biacore sensor chip (CM5-SA) and different concentrations of purified Fabs were injected during 3 minutes following by a 5 minute wash with buffer. From the washing phase the off-rate (kd) was determined, while from the injection phase the on-rate (ka) was calculated using the concentration and off-rate as parameters. […] The binding kinetics of antagonistic purified Fabs (Table 3) and periplasmic fractions of Fab-expressing bacteria (Table 4) were also evaluated by surface plasmon resonance (Biacore) using both bacterially and eukaryotically produced human IL-6 directly coated on a CM5 chip. The Fabs tested had off-rates between 6×10^−4 and 2×10^−5 s^−1."}, "IL-6": {"test_system": "IL-6", "assay": "Serum amyloid A (SAA) mouse model, induction by injected IL-6", "format": "in vivo", "design": "SAA, Mean / SAA, Mouse1 / SAA, Mouse2 / SAA, Mouse3 / SAA, Mouse4 / SAA, Mouse5 / SAA, Mouse6: unit not given here", "details": "0.1 μg IL-6; for SAA, Mean: mean of 6 mice", "procedure": "The in vivo efficacy of clones 68F2 and 61H7 was further investigated by measuring the ability of these antibodies to block serum amyloid A (SAA) induction in response to injected IL-6. General methods for performing this assay are set forth in WO2006/119115A2, which is hereby incorporated by reference in its entirety. […] Four hours after administration of the antibody, the mice were injected with 0.1 ug of IL-6. After a further 16 hours, blood was taken from the mice and the concentration of Serum Amyloid A was determined by ELISA. The dose responses are also graphically depicted in FIG. 13."}}, "data": [{"molecule": "B1", "values": [{"measurement": "KA", "setting": "[1]", "value": "4.04e+07", "unit": "M⁻¹"}, {"measurement": "Rmax", "setting": "[1]", "value": 22.6, "unit": "RU"}, {"measurement": "ka", "setting": "[1]", "value": 101000, "unit": "M⁻¹ s⁻¹"}, {"measurement": "kd", "setting": "[1]", "value": 0.0025, "unit": "s⁻¹"}]}, {"molecule": "B2", "values": [{"measurement": "KA", "setting": "[1]", "value": "1.72e+08", "unit": "M⁻¹"}, {"measurement": "Rmax", "setting": "[1]", "value": 48.2, "unit": "RU"}, {"measurement": "ka", "setting": "[1]", "value": 288000, "unit": "M⁻¹ s⁻¹"}, {"measurement": "kd", "setting": "[1]", "value": 0.00168, "unit": "s⁻¹"}]}, {"molecule": "B3", "values": [{"measurement": "KA", "setting": "[1]", "value": "1.51e+09", "unit": "M⁻¹"}, {"measurement": "Rmax", "setting": "[1]", "value": 38.1, "unit": "RU"}, {"measurement": "ka", "setting": "[1]", "value": 133000, "unit": "M⁻¹ s⁻¹"}, {"measurement": "kd", "setting": "[1]", "value": "8.77e-05", "unit": "s⁻¹"}, {"measurement": "off-rates (range)", "setting": "[1]", "value": "~10^−5 s^−1"}, {"measurement": "Kd", "setting": "[1]; read-out: affinities", "value": 0.66, "unit": "nM"}]}, {"molecule": "B4", "values": [{"measurement": "KA", "setting": "[1]", "value": "7.05e+07", "unit": "M⁻¹"}, {"measurement": "Rmax", "setting": "[1]", "value": 22.1, "unit": "RU"}, {"measurement": "ka", "setting": "[1]", "value": 55200, "unit": "M⁻¹ s⁻¹"}, {"measurement": "kd", "setting": "[1]", "value": 0.000784, "unit": "s⁻¹"}]}, {"molecule": "B5", "values": [{"measurement": "SAA, Mouse1", "setting": "IL-6; Ab dose/mouse 0.31 μg", "value": 158}, {"measurement": "SAA, Mouse2", "setting": "IL-6; Ab dose/mouse 0.31 μg", "value": 175}, {"measurement": "SAA, Mouse3", "setting": "IL-6; Ab dose/mouse 0.31 μg", "value": 161}, {"measurement": "SAA, Mouse4", "setting": "IL-6; Ab dose/mouse 0.31 μg", "value": 134}, {"measurement": "SAA, Mouse5", "setting": "IL-6; Ab dose/mouse 0.31 μg", "value": 183}, {"measurement": "SAA, Mouse6", "setting": "IL-6; Ab dose/mouse 0.31 μg", "value": 171}, {"measurement": "SAA, Mean", "setting": "IL-6; Ab dose/mouse 0.31 μg", "value": 163.7}, {"measurement": "SAA, Mouse1", "setting": "IL-6; Ab dose/mouse 1.25 μg", "value": 107}, {"measurement": "SAA, Mouse2", "setting": "IL-6; Ab dose/mouse 1.25 μg", "value": 54}, {"measurement": "SAA, Mouse3", "setting": "IL-6; Ab dose/mouse 1.25 μg", "value": 67}, {"measurement": "SAA, Mouse4", "setting": "IL-6; Ab dose/mouse 1.25 μg", "value": 56}, {"measurement": "SAA, Mouse5", "setting": "IL-6; Ab dose/mouse 1.25 μg", "value": 62}, {"measurement": "SAA, Mouse6", "setting": "IL-6; Ab dose/mouse 1.25 μg", "value": 71}, {"measurement": "SAA, Mean", "setting": "IL-6; Ab dose/mouse 1.25 μg", "value": 69.5}, {"measurement": "SAA, Mouse1", "setting": "IL-6; Ab dose/mouse 5 μg", "value": 80}, {"measurement": "SAA, Mouse2", "setting": "IL-6; Ab dose/mouse 5 μg", "value": 80}, {"measurement": "SAA, Mouse3", "setting": "IL-6; Ab dose/mouse 5 μg", "value": 45}, {"measurement": "SAA, Mouse4", "setting": "IL-6; Ab dose/mouse 5 μg", "value": 55}, {"measurement": "SAA, Mouse5", "setting": "IL-6; Ab dose/mouse 5 μg", "value": 70}, {"measurement": "SAA, Mouse6", "setting": "IL-6; Ab dose/mouse 5 μg", "value": 84}, {"measurement": "SAA, Mean", "setting": "IL-6; Ab dose/mouse 5 μg", "value": 69.0}]}]}
